The values that follow come from US11965039B2, “Compstatin analogues and their medical uses” (priority 2018, dated 2024).

Starred links: 1 amine or outer side, 2 acyl side, 3 side chain; linkers in the order of their positions; H or OH if unused. Positions of bridges follow the written chain, without caps; N, C: chain ends. Non-standard residues stand in square brackets, D forms with d. Groups on a side chain read outwards from the residue. *: point of attachment. Trp(1-Me) = Cn1cc(C[C@H](N)C(=O)O)c2ccccc21; C18 diacid = O=C(O)CCCCCCCCCCCCCCCCC(=O)*; C16 diacid = O=C(O)CCCCCCCCCCCCCCC(=O)*; γGlu = O=C(O)[C@H](CCC(=O)[*:2])N[*:1]; AEEA = NCCOCCOCC(=O)O; Sar = CNCC(=O)O

For test [1], the target named is T1, Human C3 (Complement tech cat #A113c) (human, UniProt P01024 23-1663). Briefly: cell-based or functional assay.
T1 sequence (P01024 23-1663 limits assumed): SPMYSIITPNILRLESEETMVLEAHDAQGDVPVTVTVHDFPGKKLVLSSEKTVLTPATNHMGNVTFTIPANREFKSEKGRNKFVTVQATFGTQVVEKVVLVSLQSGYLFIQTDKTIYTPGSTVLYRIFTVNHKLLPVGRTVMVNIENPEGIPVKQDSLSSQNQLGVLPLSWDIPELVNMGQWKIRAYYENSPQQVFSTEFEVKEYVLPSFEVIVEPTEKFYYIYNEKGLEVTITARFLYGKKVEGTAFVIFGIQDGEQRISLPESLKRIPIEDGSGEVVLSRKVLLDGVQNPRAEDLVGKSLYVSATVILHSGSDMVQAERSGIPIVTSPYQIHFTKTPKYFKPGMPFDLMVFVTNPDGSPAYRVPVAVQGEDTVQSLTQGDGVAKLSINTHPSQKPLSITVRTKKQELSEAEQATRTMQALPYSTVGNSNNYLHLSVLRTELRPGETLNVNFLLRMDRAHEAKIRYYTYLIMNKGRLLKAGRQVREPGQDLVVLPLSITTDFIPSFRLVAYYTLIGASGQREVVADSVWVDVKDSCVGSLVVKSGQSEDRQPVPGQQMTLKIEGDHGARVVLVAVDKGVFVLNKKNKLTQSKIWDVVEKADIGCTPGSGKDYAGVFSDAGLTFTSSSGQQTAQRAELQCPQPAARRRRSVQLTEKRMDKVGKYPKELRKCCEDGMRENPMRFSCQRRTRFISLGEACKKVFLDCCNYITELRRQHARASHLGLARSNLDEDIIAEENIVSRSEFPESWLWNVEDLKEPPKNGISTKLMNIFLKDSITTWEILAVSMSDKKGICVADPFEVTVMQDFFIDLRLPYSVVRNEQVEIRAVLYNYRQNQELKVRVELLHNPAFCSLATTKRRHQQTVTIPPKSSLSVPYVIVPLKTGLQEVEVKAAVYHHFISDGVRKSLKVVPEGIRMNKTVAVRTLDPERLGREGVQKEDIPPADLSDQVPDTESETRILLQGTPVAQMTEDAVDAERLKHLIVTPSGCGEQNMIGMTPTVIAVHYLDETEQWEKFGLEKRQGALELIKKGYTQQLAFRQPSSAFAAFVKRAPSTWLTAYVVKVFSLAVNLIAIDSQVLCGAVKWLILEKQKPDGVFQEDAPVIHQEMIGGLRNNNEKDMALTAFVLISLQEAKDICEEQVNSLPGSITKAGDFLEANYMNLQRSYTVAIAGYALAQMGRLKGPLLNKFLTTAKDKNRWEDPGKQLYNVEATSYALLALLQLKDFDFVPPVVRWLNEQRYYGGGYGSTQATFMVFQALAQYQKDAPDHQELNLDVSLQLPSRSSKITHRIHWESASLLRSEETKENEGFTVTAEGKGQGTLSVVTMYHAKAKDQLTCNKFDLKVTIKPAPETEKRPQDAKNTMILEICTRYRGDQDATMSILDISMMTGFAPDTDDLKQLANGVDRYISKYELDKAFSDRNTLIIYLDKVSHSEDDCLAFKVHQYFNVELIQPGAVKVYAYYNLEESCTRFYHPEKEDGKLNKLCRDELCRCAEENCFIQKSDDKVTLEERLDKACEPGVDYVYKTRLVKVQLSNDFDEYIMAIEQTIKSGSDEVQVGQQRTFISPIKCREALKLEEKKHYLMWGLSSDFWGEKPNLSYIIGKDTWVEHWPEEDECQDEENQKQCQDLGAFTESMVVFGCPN
For test [2], the target named is T1, Human C3 (Complement tech cat #A113c). In words: SPR (Biacore T200), human C3 immobilised, peptide injected, 1:1 fit. Here is the method:
Surface plasmon resonance (SPR) was used to characterize peptides with respect to their binding affinity (Kd) for C3. Human C3 (Complement tech cat #A113c) was immobilised on individual flow cells of CM5 sensor chips (GE Healthcare) using standard amine coupling to a density of approximately 3000 resonance units (RU) in a buffer consisting of 10 mM phosphate pH 7.4, 150 mM NaCl, 0.05% Tween20.
For interaction experiments a multi-cycle experiment approach was used and performed using a BiacoreT200™ instrument (GE Healthcare) at 25° C. Peptides were injected in increasing concentration series (6-8 different concentrations) for 60-120 sat a flow rate of 30 µL/min in a buffer consisting of 10 mM Tris buffer at pH 7.4, with 150 mM NaCl and 0.05% Tween20. This was followed by a dissociation period for up to 10 min. The C3 surface was regenerated between runs by a 45 s injection of 3 M MgCl_2.
(In general: SPR reads the build-up and loss of mass on a sensor chip optically.)

B1: Compound 102 (peptide)
peptide: Ac-FCI[Trp(1-Me)]QDWGEHRCTGAESK([AEEA-AEEA-γGlu-C16 diacid])-NH2
modifications: disulfide 2-12
SMILES: CC[C@H](C)[C@@H]1NC(=O)[C@@H](NC(=O)[C@H](Cc2ccccc2)NC(C)=O)CSSC[C@@H](C(=O)N[C@H](C(=O)NCC(=O)N[C@@H](C)C(=O)N[C@@H](CCC(=O)O)C(=O)N[C@@H](CO)C(=O)N[C@@H](CCCCNC(=O)COCCOCCNC(=O)COCCOCCNC(=O)CC[C@H](NC(=O)CCCCCCCCCCCCCCC(=O)O)C(=O)O)C(N)=O)[C@@H](C)O)NC(=O)[C@H](CCCNC(=N)N)NC(=O)[C@H](Cc2c[nH]cn2)NC(=O)[C@H](CCC(=O)O)NC(=O)CNC(=O)[C@H](Cc2c[nH]c3ccccc23)NC(=O)[C@H](CC(=O)O)NC(=O)[C@H](CCC(N)=O)NC(=O)[C@H](Cc2cn(C)c3ccccc23)NC1=O
Usually Kd stands for the free concentration of one partner at which half of the binding sites on the other are occupied at equilibrium, for simple one-to-one binding. Read a low Kd as higher affinity. For the molecule B1, the “inhibition of hemolysis IC50” value in test [1] is under 100 nM. Also, in test [2], binding was characterised by a dissociation constant (Kd) of 1.7 nM.

Regarding Ac-SEFCI[Trp(1-Me)]QDWGEHRC[Sar]EGE-{AEEA-AEEA-K(γGlu-Gly-γGlu-17-carboxy-heptadecanoyl)-NH2} (disulfide 4-14) [Compound 123], the “inhibition of hemolysis IC50” value in test [1] was under 100 nM. For the same molecule, binding in test [2] was put at a Kd of 11 nM.

Consider Ac-SEYCI[Trp(1-Me)]QEWGEHRC[Sar]EGE-{AEEA-AEEA-K(γGlu-Gly-γGlu-17-carboxy-heptadecanoyl)-NH2} (disulfide 4-14) [Compound 125], for which the “inhibition of hemolysis IC50” value in test [1] is under 500 nM. The molecule also came in with a Kd in test [2] of 71 nM.

Regarding Ac-SEYCI[Trp(1-Me)]QDWGEHRC[Sar]EGE-{AEEA-AEEA-K(γGlu-Gly-γGlu-17-carboxy-heptadecanoyl)-NH2} (disulfide 4-14) [Compound 117], the “inhibition of hemolysis IC50” value in test [1] is under 250 nM. In addition, in test [2], the affinity, expressed as Kd, was 24 nM.

Take Ac-SEFCI[Trp(1-Me)]QEWGEHRC[Sar]EGE-{AEEA-AEEA-K(γGlu-Gly-γGlu-17-carboxy-heptadecanoyl)-NH2} (disulfide 4-14) [Compound 124]: in test [1], the “inhibition of hemolysis IC50” value was under 100 nM. The molecule also showed a Kd in test [2] of 31 nM.

B2: Compound 106 (peptide)
peptide: Ac-SAYCI[Trp(1-Me)]QDWGEHRC[Sar]EK([γGlu-Gly-γGlu-C18 diacid])-NH2
modifications: disulfide 4-14
SMILES: CC[C@H](C)[C@@H]1NC(=O)[C@@H](NC(=O)[C@H](Cc2ccc(O)cc2)NC(=O)[C@H](C)NC(=O)[C@H](CO)NC(C)=O)CSSC[C@@H](C(=O)N(C)CC(=O)N[C@@H](CCC(=O)O)C(=O)N[C@@H](CCCCNC(=O)CC[C@H](NC(=O)CNC(=O)CC[C@H](NC(=O)CCCCCCCCCCCCCCCCC(=O)O)C(=O)O)C(=O)O)C(N)=O)NC(=O)[C@H](CCCNC(=N)N)NC(=O)[C@H](Cc2c[nH]cn2)NC(=O)[C@H](CCC(=O)O)NC(=O)CNC(=O)[C@H](Cc2c[nH]c3ccccc23)NC(=O)[C@H](CC(=O)O)NC(=O)[C@H](CCC(N)=O)NC(=O)[C@H](Cc2cn(C)c3ccccc23)NC1=O
Regarding B2, in test [1], the “inhibition of hemolysis IC50” value is under 250 nM. This molecule gave a Kd in test [2] of 5.4 nM.

B3: Compound 53 (peptide)
peptide: Ac-EGSAFCI[Trp(1-Me)]QDWGEHRC[Sar]E-NH2
modifications: disulfide 6-16
SMILES: CC[C@H](C)[C@@H]1NC(=O)[C@@H](NC(=O)[C@H](Cc2ccccc2)NC(=O)[C@H](C)NC(=O)[C@H](CO)NC(=O)CNC(=O)[C@H](CCC(=O)O)NC(C)=O)CSSC[C@@H](C(=O)N(C)CC(=O)N[C@@H](CCC(=O)O)C(N)=O)NC(=O)[C@H](CCCNC(=N)N)NC(=O)[C@H](Cc2c[nH]cn2)NC(=O)[C@H](CCC(=O)O)NC(=O)CNC(=O)[C@H](Cc2c[nH]c3ccccc23)NC(=O)[C@H](CC(=O)O)NC(=O)[C@H](CCC(N)=O)NC(=O)[C@H](Cc2cn(C)c3ccccc23)NC1=O
In the case of B3, in test [1], the “inhibition of hemolysis IC50” value is under 100 nM. The same molecule registered a Kd in test [2] of 1.4 nM.

B4: Compound 107 (peptide)
peptide: {C16 diacid}-EGSEYCI[Trp(1-Me)]QDWGEHRC[Sar]E-NH2
modifications: disulfide 6-16; also: places 15-carboxy-pentadecanoyl on side chain of Glu1, mods on N-terminus
For the molecule B4, the “inhibition of hemolysis IC50” value in test [1] was under 100 nM. The molecule further returned a dissociation constant (Kd) in test [2] of 6.1 nM.

B5: Compound 54 (peptide)
peptide: Ac-EGSAYCI[Trp(1-Me)]QDWGEHRC[Sar]E-NH2
modifications: disulfide 6-16
SMILES: CC[C@H](C)[C@@H]1NC(=O)[C@@H](NC(=O)[C@H](Cc2ccc(O)cc2)NC(=O)[C@H](C)NC(=O)[C@H](CO)NC(=O)CNC(=O)[C@H](CCC(=O)O)NC(C)=O)CSSC[C@@H](C(=O)N(C)CC(=O)N[C@@H](CCC(=O)O)C(N)=O)NC(=O)[C@H](CCCNC(=N)N)NC(=O)[C@H](Cc2c[nH]cn2)NC(=O)[C@H](CCC(=O)O)NC(=O)CNC(=O)[C@H](Cc2c[nH]c3ccccc23)NC(=O)[C@H](CC(=O)O)NC(=O)[C@H](CCC(N)=O)NC(=O)[C@H](Cc2cn(C)c3ccccc23)NC1=O
For the molecule B5, in test [1], the “inhibition of hemolysis IC50” value was under 100 nM. For the same molecule, binding in test [2] was characterised by a dissociation constant (Kd) of 3 nM.

B6: Compound 104 (peptide)
peptide: Ac-EGSAYCI[Trp(1-Me)]QDWGEHRC[Sar]EGK([AEEA-AEEA-γGlu-C16 diacid])-NH2
modifications: disulfide 6-16
SMILES: CC[C@H](C)[C@@H]1NC(=O)[C@@H](NC(=O)[C@H](Cc2ccc(O)cc2)NC(=O)[C@H](C)NC(=O)[C@H](CO)NC(=O)CNC(=O)[C@H](CCC(=O)O)NC(C)=O)CSSC[C@@H](C(=O)N(C)CC(=O)N[C@@H](CCC(=O)O)C(=O)NCC(=O)N[C@@H](CCCCNC(=O)COCCOCCNC(=O)COCCOCCNC(=O)CC[C@H](NC(=O)CCCCCCCCCCCCCCC(=O)O)C(=O)O)C(N)=O)NC(=O)[C@H](CCCNC(=N)N)NC(=O)[C@H](Cc2c[nH]cn2)NC(=O)[C@H](CCC(=O)O)NC(=O)CNC(=O)[C@H](Cc2c[nH]c3ccccc23)NC(=O)[C@H](CC(=O)O)NC(=O)[C@H](CCC(N)=O)NC(=O)[C@H](Cc2cn(C)c3ccccc23)NC1=O
Turning to B6, the “inhibition of hemolysis IC50” value in test [1] is under 100 nM. In test [2], the Kd came out at 34 nM.

B7: Compound 118 (peptide)
peptide: Ac-SEYCI[Trp(1-Me)]QDWGEHRC[Sar]EGAK([AEEA-γGlu-AEEA-Gly-γGlu-C18 diacid])-NH2
modifications: disulfide 4-14
SMILES: CC[C@H](C)[C@@H]1NC(=O)[C@@H](NC(=O)[C@H](Cc2ccc(O)cc2)NC(=O)[C@H](CCC(=O)O)NC(=O)[C@H](CO)NC(C)=O)CSSC[C@@H](C(=O)N(C)CC(=O)N[C@@H](CCC(=O)O)C(=O)NCC(=O)N[C@@H](C)C(=O)N[C@@H](CCCCNC(=O)COCCOCCNC(=O)CC[C@H](NC(=O)COCCOCCNC(=O)CNC(=O)CC[C@H](NC(=O)CCCCCCCCCCCCCCCCC(=O)O)C(=O)O)C(=O)O)C(N)=O)NC(=O)[C@H](CCCNC(=N)N)NC(=O)[C@H](Cc2c[nH]cn2)NC(=O)[C@H](CCC(=O)O)NC(=O)CNC(=O)[C@H](Cc2c[nH]c3ccccc23)NC(=O)[C@H](CC(=O)O)NC(=O)[C@H](CCC(N)=O)NC(=O)[C@H](Cc2cn(C)c3ccccc23)NC1=O
Take B7: the “inhibition of hemolysis IC50” value in test [1] was under 100 nM. The molecule also gave a Kd in test [2] of 11 nM.

B8: Compound 4 (peptide)
peptide: Ac-ICI[Trp(1-Me)]QDWGEHRCT-NH2
modifications: disulfide 2-12
SMILES: CC[C@H](C)[C@H](NC(C)=O)C(=O)N[C@H]1CSSC[C@@H](C(=O)N[C@H](C(N)=O)[C@@H](C)O)NC(=O)[C@H](CCCNC(=N)N)NC(=O)[C@H](Cc2c[nH]cn2)NC(=O)[C@H](CCC(=O)O)NC(=O)CNC(=O)[C@H](Cc2c[nH]c3ccccc23)NC(=O)[C@H](CC(=O)O)NC(=O)[C@H](CCC(N)=O)NC(=O)[C@H](Cc2cn(C)c3ccccc23)NC(=O)[C@H]([C@@H](C)CC)NC1=O
With B8, the “inhibition of hemolysis IC50” value in test [1] was under 100 nM. In addition, the Kd in test [2] stood at 1.5 nM.

B9: Compound 111 (peptide)
peptide: Ac-EGSAYCI[Trp(1-Me)]QDWGEHRC[Sar]EK[γGlu]K([AEEA-AEEA-γGlu-C18 diacid])-NH2
modifications: disulfide 6-16
SMILES: CC[C@H](C)[C@@H]1NC(=O)[C@@H](NC(=O)[C@H](Cc2ccc(O)cc2)NC(=O)[C@H](C)NC(=O)[C@H](CO)NC(=O)CNC(=O)[C@H](CCC(=O)O)NC(C)=O)CSSC[C@@H](C(=O)N(C)CC(=O)N[C@@H](CCC(=O)O)C(=O)N[C@@H](CCCCN)C(=O)N[C@@H](CCC(=O)N[C@@H](CCCCNC(=O)COCCOCCNC(=O)COCCOCCNC(=O)CC[C@H](NC(=O)CCCCCCCCCCCCCCCCC(=O)O)C(=O)O)C(N)=O)C(=O)O)NC(=O)[C@H](CCCNC(=N)N)NC(=O)[C@H](Cc2c[nH]cn2)NC(=O)[C@H](CCC(=O)O)NC(=O)CNC(=O)[C@H](Cc2c[nH]c3ccccc23)NC(=O)[C@H](CC(=O)O)NC(=O)[C@H](CCC(N)=O)NC(=O)[C@H](Cc2cn(C)c3ccccc23)NC1=O
For B9, the “inhibition of hemolysis IC50” value in test [1] is under 100 nM. Besides, binding in test [2] was put at a Kd of 8.2 nM.
